According to article doi:10.1101/2023.12.13.571504 (bioRxiv, 2023):

Molecular target: the molecule itself
Assay: cross-linking

B1: msfGFP-GRP8^WT (Arabidopsis thaliana Glycine-Rich RNA-Binding Protein 8 fused to monomeric superfolder GFP) (natural protein, UniProt Q03251 1-169, looked up)
chain: MSEVEYRCFVGGLAWATNDEDLQRTFSQFGDVIDSKIINDRESGRSRGFGFVTFKDEKAMRDAIEEMNGKELDGRVITVNEAQSRGSGGGGGGRGGSGGGYRSGGGGGYSGGGGGGYSGGGGGGYERRSGGYGSGGGGGGRGYGGGGRREGGGYGGGDGGSYGGGGGGW
stoichiometry N: 2

B2: msfGFP-GRP8^R7A (natural protein, Arabidopsis thaliana, UniProt Q03251 1-169, looked up)
chain: MSEVEYACFVGGLAWATNDEDLQRTFSQFGDVIDSKIINDRESGRSRGFGFVTFKDEKAMRDAIEEMNGKELDGRVITVNEAQSRGSGGGGGGRGGSGGGYRSGGGGGYSGGGGGGYSGGGGGGYERRSGGYGSGGGGGGRGYGGGGRREGGGYGGGDGGSYGGGGGGW
binding result: binds
